Experimental findings from the supplement of paper PMC5998384 are described below.

Data set [1] has as its system HeLa Kyoto. As to the kind of experiment: thermal stability score vs G1/S (z-score of summed log2 fold changes over temperatures); higher = more thermally stable than in G1/S.
In data set [2] the test system is HeLa Kyoto. As to the kind of experiment: solubility in G1/S (NP-40 vs SDS abundance) (log2 ratio); higher = more soluble. The conditions noted are these: cell cycle stage: G1/S.
In data set [3] the test system is HeLa Kyoto. As to the kind of experiment: melting temperature (median over replicates), in situ; higher = more thermally stable.
Data set [4] concerns HeLa Kyoto. The experiment in a line: solubility change mitosis vs G1/S (difference of NP-40 vs SDS log2 ratios) (log2 ratio difference); higher = more soluble in mitosis.
[5] abbreviates: cell cycle stage: early G1 (4.5 h after nocodazole release).
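Throughout, for melting temperature (median over replicates), in situ: HeLa Kyoto cells synchronized by double thymidine or nocodazole block, proteins quantified by TMT10plex mass spectrometry, three independent biological replicates.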
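Throughout, for solubility change mitosis vs G1/S (difference of NP-40 vs SDS log2 ratios): synchronized HeLa Kyoto cells (double thymidine block for G1/S, nocodazole release for mitosis), protein amounts in NP-40 versus SDS lysates quantified by mass spectrometry, three biological replicates.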
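Throughout, for solubility in G1/S (NP-40 vs SDS abundance): HeLa Kyoto cells arrested at G1/S by double thymidine block, proteins quantified by TMT10plex mass spectrometry in mild NP-40 versus SDS extracts, three biological replicates.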
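Throughout, for thermal stability score vs G1/S (z-score of summed log2 fold changes over temperatures): synchronized HeLa Kyoto cells, proteins quantified by TMT10plex mass spectrometry, three biological replicates, mitosis taken 0.5 h after nocodazole release, G1/S directly after double thymidine block.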

For the sequence “MKLWVSALLMAWFGVLSCVQAEFFTSIGHMTDLIYAEKELVQSLKEYILVEEAKLSKIKSWANKMEALTSKSAADAEGYLAHPVNAYKLVKRLNTDWPALEDLVLQDSAAGFIANLSVQRQFFPTDEDEIGAAKALMRLQDTYRLDPGTISRGELPGTKYQAMLSVDDCFGMGRSAYNEGDYYHTVLWMEQVLKQLDAGEEATTTKSQVLDYLSYAVFQLGDLHRALELTRRLLSLDPSHERAGGNLRYFEQLLEEEREKTLTNQTEAELATPEGIYERPVDYLPERDVYESLCRGEGVKLTPRRQKRLFCRYHHGNRAPQLLIAPFKEEDEWDSPHIVRYYDVMSDEEIERIKEIAKPKLARATVRDPKTGVLTVASYRVSKSSWLEEDDDPVVARVNRRMQHITGLTVKTAELLQVANYGVGGQYEPHFDFSRNDERDTFKHLGTGNRVATFLNYMSDVEAGGATVFPDLGAAIWPKKGTAVFWYNLLRSGEGDYRTRHAACPVLVGCKWVSNKWFHERGQEFLRPCGSTEVD [P4HA2]”, the thermal stability score stood at 2.83 in the data set with HeLa Kyoto [1] (setting [5]) and 4.61 in the data set with HeLa Kyoto [1] (cell cycle stage: mitosis). For the same sequence, in the data set with HeLa Kyoto [2], the “solubility in G1/S (log2)” value amounted to 0.0555. Further, the melting temperature in the data set with HeLa Kyoto [3] (cell cycle stage: G1/S) was determined as 54.2 °C; in the data set with HeLa Kyoto [3] (cell cycle stage: mitosis) it was 54.1 °C. In the data set with HeLa Kyoto [4], the “solubility change mitosis (log2)” value was -0.0711.

Consider “MSEVKSRKKSGPKGAPAAEPGKRSEGGKTPVARSSGGGGWADPRTCLSLLSLGTCLGLAWFVFQQSEKFAKVENQYQLLKLETNEFQQLQSKISLISEKWQKSEAIMEQLKSFQIIAHLKRLQEEINEVKTWSNRITEKQDILNNSLTTLSQDITKVDQSTTSMAKDVGLKITSVKTDIRRISGLVTDVISLTDSVQELENKIEKVEKNTVKNIGDLLSSSIDRTATLRKTASENSQRINSVKKTLTELKSDFDKHTDRFLSLEGDRAKVLKTVTFANDLKPKVYNLKKDFSRLEPLVNDLTLRIGRLVTDLLQREKEIAFLSEKISNLTIVQAEIKDIKDEIAHISDMN [IKBIP]”, for which the thermal stability score was found to be 2.64 in the data set with HeLa Kyoto [1] (setting [5]) and 4.37 with HeLa Kyoto [1] (cell cycle stage: mitosis). Also, the “solubility in G1/S (log2)” value with HeLa Kyoto [2] is 0.751. Moreover, the melting temperature in the data set on HeLa Kyoto [3] (cell cycle stage: G1/S) is 54.1 °C; in the data set with HeLa Kyoto [3] (cell cycle stage: mitosis) it was 55.2 °C. In addition, in the data set on HeLa Kyoto [4], the “solubility change mitosis (log2)” value is 0.165.

“MATGQKLMRAVRVFEFGGPEVLKLRSDIAVPIPKDHQVLIKVHACGVNPVETYIRSGTYSRKPLLPYTPGSDVAGVIEAVGDNASAFKKGDRVFTSSTISGGYAEYALAADHTVYKLPEKLDFKQGAAIGIPYFTAYRALIHSACVKAGESVLVHGASGGVGLAACQIARAYGLKILGTAGTEEGQKIVLQNGAHEVFNHREVNYIDKIKKYVGEKGIDIIIEMLANVNLSKDLSLLSHGGRVIVVGSRGTIEINPRDTMAKESSIIGVTLFSSTKEEFQQYAAALQAGMEIGWLKPVIGSQYPLEKVAEAHENIIHGSGATGKMILLL [CRYZ]”: the results for the thermal stability score in the data set with HeLa Kyoto [1] (setting [5]) and in the data set on HeLa Kyoto [1] (cell cycle stage: mitosis) were -0.614 and -0.806, respectively. In the data set on HeLa Kyoto [2], the “solubility in G1/S (log2)” value was 0.212. In addition, the melting temperature with HeLa Kyoto [3] (cell cycle stage: G1/S) stood at 55.2 °C; in the data set on HeLa Kyoto [3] (cell cycle stage: mitosis), 55 °C. Further, the “solubility change mitosis (log2)” value in the data set on HeLa Kyoto [4] is -0.187.

Regarding “MEAAAVTVTRSATRRRRRQLQGLAAPEAGTQEEQEDQEPRPRRRRPGRSIKDEEEETVFREVVSFSPDPLPVRYYDKDTTKPISFYLSSLEELLAWKPRLEDGFNVALEPLACRQPPLSSQRPRTLLCHDMMGGYLDDRFIQGSVVQTPYAFYHWQCIDVFVYFSHHTVTIPPVGWTNTAHRHGVCVLGTFITEWNEGGRLCEAFLAGDERSYQAVADRLVQITQFFRFDGWLINIENSLSLAAVGNMPPFLRYLTTQLHRQVPGGLVLWYDSVVQSGQLKWQDELNQHNRVFFDSCDGFFTNYNWREEHLERMLGQAGERRADVYVGVDVFARGNVVGGRFDTDKSLELIRKHGFSVALFAPGWVYECLEKKDFFQNQDKFWGRLERYLPTHSICSLPFVTSFCLGMGARRVCYGQEEAVGPWYHLSAQEIQPLFGEHRLGGDGRGWVRTHCCLEDAWHGGSSLLVRGVIPPEVGNVAVRLFSLQAPVPPKIYLSMVYKLEGPTDVTVALELTTGDAGSCHIGGISVLNAETSSRHSLRPLRVPPTKLARWVGRCGRQLSGGWVQHCYEVSLRGCLLLDLLVCFSRPPGSREEESFTCRLGEIQVVDAASLLAPLPQVQAVTISHIRWQPSASEREGPPALLQLSCTLHWSFLLSQVRCFRIHCWGGMSDDSPGRELPRPEMPMFLGLAFATQYRIVDLLVEAAGPGQDRRMEFLVEPVPKEGFRVPQAEWGRAVLLYSAPA [ENGASE]”, the thermal stability score in the data set on HeLa Kyoto [1] (setting [5]) is 0.438; in the data set on HeLa Kyoto [1] (cell cycle stage: mitosis), -0.925. In addition, the “solubility in G1/S (log2)” value with HeLa Kyoto [2] was -0.179. The melting temperature in the data set on HeLa Kyoto [3] (cell cycle stage: G1/S) stood at 53.6 °C; in the data set on HeLa Kyoto [3] (cell cycle stage: mitosis), 53.4 °C. For the same sequence, the “solubility change mitosis (log2)” value in the data set on HeLa Kyoto [4] is -0.0912.

In the case of “MLPARLPFRLLSLFLRGSAPTAARHGLREPLLERRCAAASSFQHSSSLGRELPYDPVDTEGFGEGGDMQERFLFPEYILDPEPQPTREKQLQELQQQQEEEERQRQQRREERRQQNLRARSREHPVVGHPDPALPPSGVNCSGCGAELHCQDAGVPGYLPREKFLRTAEADGGLARTVCQRCWLLSHHRRALRLQVSREQYLELVSAALRRPGPSLVLYMVDLLDLPDALLPDLPALVGPKQLIVLGNKVDLLPQDAPGYRQRLRERLWEDCARAGLLLAPGHQGPQRPVKDEPQDGENPNPPNWSRTVVRDVRLISAKTGYGVEELISALQRSWRYRGDVYLVGATNAGKSTLFNTLLESDYCTAKGSEAIDRATISPWPGTTLNLLKFPICNPTPYRMFKRHQRLKKDSTQAEEDLSEQEQNQLNVLKKHGYVVGRVGRTFLYSEEQKDNIPFEFDADSLAFDMENDPVMGTHKSTKQVELTAQDVKDAHWFYDTPGITKENCILNLLTEKEVNIVLPTQSIVPRTFVLKPGMVLFLGAIGRIDFLQGNQSAWFTVVASNILPVHITSLDRADALYQKHAGHTLLQIPMGGKERMAGFPPLVAEDIMLKEGLGASEAVADIKFSSAGWVSVTPNFKDRLHLRGYTPEGTVLTVRPPLLPYIVNIKGQRIKKSVAYKTKKPPSLMYNVRKKKGKINV [NOA1]”, the thermal stability score with HeLa Kyoto [1] (setting [5]) was -0.456; in the data set on HeLa Kyoto [1] (cell cycle stage: mitosis), 0.655. Also, in the data set with HeLa Kyoto [2], the “solubility in G1/S (log2)” value was 0.131. Besides, the melting temperature in the data set on HeLa Kyoto [3] (cell cycle stage: G1/S) was determined as 49.8 °C; with HeLa Kyoto [3] (cell cycle stage: mitosis), 50.1 °C. Also, in the data set with HeLa Kyoto [4], the “solubility change mitosis (log2)” value is -0.187.

For the sequence “MAASAGAGAVIAAPDSRRWLWSVLAAALGLLTAGVSALEVYTPKEIFVANGTQGKLTCKFKSTSTTGGLTSVSWSFQPEGADTTVSFFHYSQGQVYLGNYPPFKDRISWAGDLDKKDASINIENMQFIHNGTYICDVKNPPDIVVQPGHIRLYVVEKENLPVFPVWVVVGIVTAVVLGLTLLISMILAVLYRRKNSKRDYTGCSTSESLSPVKQAPRKSPSDTEGLVKSLPSGSHQGPVIYAQLDHSGGHHSDKINKSESVVYADIRKN [MPZL1]”, the figures for the thermal stability score in the data set on HeLa Kyoto [1] (setting [5]) and with HeLa Kyoto [1] (cell cycle stage: mitosis) were -1.73 and -3.55, respectively. The “solubility in G1/S (log2)” value in the data set on HeLa Kyoto [2] worked out at 0.534. Besides, the melting temperature in the data set on HeLa Kyoto [3] (cell cycle stage: G1/S) stood at 57.8 °C; in the data set with HeLa Kyoto [3] (cell cycle stage: mitosis) it was 58.1 °C. In addition, the “solubility change mitosis (log2)” value with HeLa Kyoto [4] is -0.289.
